Source: paper PMC11594380
pEC50, pKd: −log10 of the molar value.

Biological target: SARS-CoV-2 Wuhan spike receptor-binding domain (RBD), His-tagged (SARS-CoV-2) (UniProt P0DTC2)
Assay: ELISA

WTL_3H, wild-type-like tri-helical ACE2 fragment (from UniProt Q9BYF1 18-805) (domain or fragment)
pEC50: 6.60
pKd: 6.72
